Molecular target: T1, recombinant human TIGIT-Fc carrier-free protein (Homo sapiens (Human)., UniProt Q495A1-1)
T1 construct: T cell Ig and ITIM domain receptor (TIGIT), human; also called hTIGIT-Fc; human TIGIT recombinant protein; source: bought: Biolegend (Cat. No. 768608)
Test: SPR; Biacore T200; m/hTIGIT-Fc (10 µg/mL in 10 mM Na-acetate pH 4.0) immobilised on a CM5 chip; Nbs or scFv injected in two-fold dilutions from 200 nM, 10 µl/min, 25°C; HBS pH 7.4 (0.01 M HEPES, 0.15 M NaCl, 3 mM EDTA, 0.005% Tween 20); fit 1:1 binding with drift and RI2
Conditions: both partners purified

T1 sequence (Q495A1 22-141): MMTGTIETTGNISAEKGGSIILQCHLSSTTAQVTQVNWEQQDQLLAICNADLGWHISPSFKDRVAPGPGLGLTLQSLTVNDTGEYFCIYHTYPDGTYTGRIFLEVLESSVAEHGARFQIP
Chain of TIGIT (Q495A1 22-141): as above

Row | koff [s⁻¹] | kon [M⁻¹ s⁻¹] | Molecule
1 | 0.000496 | 1.06e+06 | anti-hTIGIT Nb 17018 (VHH, nanobody from an immunized llama; Cloned in pHen6 after PCR with primers A6E and PMCF; source: E. coli WK6, periplasmic extract, purified (Ni-NTA, SEC); not shown: His6, C-terminal, kept) VHH: QVQLQESGGGLVQAGGSLRLSCTASSIFSINAMGWYRQTPGKQRELVARITNGSSTNYADSVKGRFTISRDNAKNTVYLQMNSLKPEDTAVYYCHTDLLLEVGAMRYWGQGTQVTVSS
2 | 0.00157 | 1.36e+07 | anti-hTIGIT Nb 17037 (VHH, nanobody from an immunized llama; Cloned in pHen6 after PCR with primers A6E and PMCF; source: E. coli WK6, periplasmic extract, purified (Ni-NTA, SEC); not shown: His6, C-terminal, kept) VHH: QVQLQESGGGLVQAGGSLRLSCAASSTLSIDDMGWYRQAPEKHREFVATISRGGSTNYAASVKGRFTISRDNAKNTVFLQMNNLKSEDTAVYYCRATSTWRYYWAQGTQVTVSS
3 | 0.000827 | 830000 | single-chain variable fragment derived from the monoclonal antibody Vibostolimab (scFv, V domains shown, variable domain of the heavy chain (VH) of Vibostolimab (Merck); (G4S)3 linker; variable domain of the light chain (VL) of Vibostolimab (Merck); Cloned in pHen6; also called ScFv Vibo; Vibo scFv; source: E. coli WK6, periplasmic extract, purified (Ni-NTA, SEC), produced in the same way as the Nbs; not shown: His6, C-terminal, kept) VH: EVQLVQSGAEVKKPGSSVKVSCKASGYTFSSYVMHWVRQAPGQGLEWIGYIDPYNDGAKYAQKFQGRVTLTSDKSTSTAYMELSSLRSEDTAVYYCARGGPYGWYFDVWGQGTTVTVSS VL: DIQMTQSPSSLSASVGDRVTITCRASEHIYSYLSWYQQKPGKVPKLLIYNAKTLAEGVPSRFSGSGSGTDFTLTISSLQPEDVATYYCQHHFGSPLTFGQGTRLEIK
4 | 0.00426 | 5.66e+06 | anti-hTIGIT Nb 16920 (VHH, nanobody from an immunized llama; Cloned in pHen6 after PCR with primers A6E and PMCF; source: E. coli WK6, periplasmic extract, purified (Ni-NTA, SEC); not shown: His6, C-terminal, kept) VHH: QVQLQESGGGFVQAGGSLRLSCAASSISSIYAMDWYRQAPGKQREFVAGITSGGTTNYGSTVKGRFTISRDESKNTVDLQMNSLKPEDSAVYVCRATISWKIYSGQGTQVTVSS
5 | 0.000911 | 462000 | anti-hTIGIT Nb 16925 (VHH, nanobody from an immunized llama; Cloned in pHen6 after PCR with primers A6E and PMCF; source: E. coli WK6, periplasmic extract, purified (Ni-NTA, SEC); not shown: His6, C-terminal, kept) VHH: QVQLQESGGGLVQAGGSLRLSCAASSISSINAMGWYRQPPGKQRELVARITFGHSTNYADSVKGRFTISRDNAKSTVYLQMNSLKPEDTAVYYCNADLLLNTQAIRAWGQGTQVTVSS
6 | 0.000803 | 2.33e+06 | anti-hTIGIT Nb 17010 (VHH, nanobody from an immunized llama; Cloned in pHen6 after PCR with primers A6E and PMCF; source: E. coli WK6, periplasmic extract, purified (Ni-NTA, SEC); not shown: His6, C-terminal, kept) VHH: QVQLQESGGGSVQTGGSLRLSCAASNGFSINAMGWYRQSPGKQRELVARITSGSSTNYTNYADSVKGRFTISRDNAKNTGYLEMNLLKPEDTAVYYCHADVLLGGLQGLIQRFWGQGTQVTVSS

Molecular target: T2, recombinant mouse TIGIT-Fc carrier-free protein (Mus musculus, UniProt A0A0B4J1G6)
T2 construct: T cell Ig and ITIM domain receptor (TIGIT), mouse; also called mTIGIT-Fc; mouse TIGIT recombinant protein; source: bought: Biolegend (Cat. No. 771808)
Test: as above
Conditions: both partners purified
T2 sequence (P86176 29-148): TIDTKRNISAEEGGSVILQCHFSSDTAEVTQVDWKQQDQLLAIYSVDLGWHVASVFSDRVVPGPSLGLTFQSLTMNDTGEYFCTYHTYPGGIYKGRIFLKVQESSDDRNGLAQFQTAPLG

Row | Molecule | koff [s⁻¹] | kon [M⁻¹ s⁻¹]
7 | anti-mTIGIT Nb 16972 (VHH, nanobody from an immunized llama; Cloned in pHen6 after PCR with primers A6E and PMCF; source: E. coli WK6, periplasmic extract, purified (Ni-NTA, SEC); not shown: His6, C-terminal, kept) VHH: QVQLQESGGGLVQTGESLRLSCAASSVSSITGMDWYRQAPGKQREWVATITRNNIAMYGASVKGRFTVSRDNAKNTWYLQMNSLKPEDTAVYYCTYRGNWGQGTQVTVSS | 0.00113 | 7.46e+06
8 | anti-mTIGIT Nb 16966 (VHH, nanobody from an immunized llama; Cloned in pHen6 after PCR with primers A6E and PMCF; source: E. coli WK6, periplasmic extract, purified (Ni-NTA, SEC); not shown: His6, C-terminal, kept) VHH: QVQLQESGGGSVRPGESLRLSCAASSDSSITGMDWYRQAPGKQREWVATITRNNITIYGASVKGRFTVSRDNVKNTWYLQMNSLKPEDTAVYYCTYRGNWGQGTQVTVSS | 0.00257 | 1.64e+07

Next, values leading:

Row | koff [s⁻¹] | kon [M⁻¹ s⁻¹] | Molecule
9 | 0.114 | 134000 | anti-mTIGIT Nb 16979 (VHH, nanobody from an immunized llama; Cloned in pHen6 after PCR with primers A6E and PMCF; source: E. coli WK6, periplasmic extract, purified (Ni-NTA, SEC); not shown: His6, C-terminal, kept) VHH: QVQLQESGGGLVQAGESLRLSCAASIIVSDNIMAWYRQSPGKQREIVALISSTGTINYVDSVKGRFTISRDNAKNTLNLQMTKLKPEDTAVYYCSGRTLRVYWGQGTQVTVSS
10 | 0.000738 | 7.06e+06 | anti-mTIGIT Nb 16988 (VHH, nanobody from an immunized llama; Cloned in pHen6 after PCR with primers A6E and PMCF; source: E. coli WK6, periplasmic extract, purified (Ni-NTA, SEC); not shown: His6, C-terminal, kept) VHH: QVQLQESGGGLVQAGGSLRLSCAASSVSSITGMDWYRQAPGKQREWVATITRNNIAMYGASVKGRFTVSRDDAKNTWYLQMNSLKPEDTAVYYCTYHGNWGQGTQVTVSS

Molecular target: CD155 (Homo sapiens) (UniProt P15151)
Test: not given
Conditions: cited from earlier work

Row | Molecule | Kd [pM]
11 | TIGIT (from UniProt Q495A1) | 2000

Molecular target: T3, recombinant mouse TIGIT-Fc carrier-free protein (Mus musculus, UniProt A0A0B4J1G6)
T3 construct: T cell Ig and ITIM domain receptor (TIGIT), mouse; also called mTIGIT-Fc; recombinant mTIGIT; source: bought: Biolegend
Test: SPR; Biacore T200; recombinant m/hTIGIT-Fc immobilised on a CM5 chip; Nbs injected, eight two-fold dilutions from 200 nM, 10 µl/min, 25°C; HBS pH 7.4 (0.01 M HEPES, 0.15 M NaCl, 3 mM EDTA, 0.005% Tween 20); fit 1:1 binding with drift and RI2
Conditions: both partners purified
T3 sequence (P86176 29-148): as the sequence (P86176 29-148) above

Row | Kd [pM] | Molecule
12 | 157 ± 1 | anti-mTIGIT nanobody 16966 (VHH, Cloned into pHen6 after PCR with primers A6E and PMCF; labelled with 99mTc on the His6 tag for the in vivo work; also called Nb 16966; source: E. coli WK6, periplasmic extract, purified (Ni-NTA, SEC); not shown: His6, C-terminal, kept) VHH: QVQLQESGGGSVRPGESLRLSCAASSDSSITGMDWYRQAPGKQREWVATITRNNITIYGASVKGRFTVSRDNVKNTWYLQMNSLKPEDTAVYYCTYRGNWGQGTQVTVSS
13 | 104 ± 1 | anti-mTIGIT nanobody 16988 (VHH, Cloned into pHen6 after PCR with primers A6E and PMCF; labelled with 99mTc on the His6 tag for the in vivo work; also called lead anti-mTIGIT Nb; source: E. coli WK6, periplasmic extract, purified (Ni-NTA, SEC); not shown: His6, C-terminal, kept) VHH: QVQLQESGGGLVQAGGSLRLSCAASSVSSITGMDWYRQAPGKQREWVATITRNNIAMYGASVKGRFTVSRDDAKNTWYLQMNSLKPEDTAVYYCTYHGNWGQGTQVTVSS
14 | 152 ± 1 | anti-mTIGIT nanobody 16972 (VHH, Cloned into pHen6 after PCR with primers A6E and PMCF; also called Nb 16972; source: E. coli WK6, periplasmic extract, purified (Ni-NTA, SEC); not shown: His6, C-terminal, kept) VHH: QVQLQESGGGLVQTGESLRLSCAASSVSSITGMDWYRQAPGKQREWVATITRNNIAMYGASVKGRFTVSRDNAKNTWYLQMNSLKPEDTAVYYCTYRGNWGQGTQVTVSS

Molecular target: T4, recombinant human TIGIT-Fc carrier-free protein (Homo sapiens (Human)., UniProt Q495A1)
T4 construct: T cell Ig and ITIM domain receptor (TIGIT), human; also called hTIGIT-Fc; recombinant hTIGIT; source: bought: Biolegend
Test: as above
Conditions: both partners purified

T4 sequence (Q495A1 22-141): as the sequence (Q495A1 22-141) above

Row | Kd [pM] | Molecule
15 | 470 ± 2 | anti-hTIGIT nanobody 17018 (VHH, Cloned into pHen6 after PCR with primers A6E and PMCF; also called Nb 17018; source: E. coli WK6, periplasmic extract, purified (Ni-NTA, SEC); not shown: His6, C-terminal, kept) VHH: QVQLQESGGGLVQAGGSLRLSCTASSIFSINAMGWYRQTPGKQRELVARITNGSSTNYADSVKGRFTISRDNAKNTVYLQMNSLKPEDTAVYYCHTDLLLEVGAMRYWGQGTQVTVSS
16 | 116 ± 1 | anti-hTIGIT nanobody 17037 (VHH, Cloned into pHen6 after PCR with primers A6E and PMCF; also called Nb 17037; source: E. coli WK6, periplasmic extract, purified (Ni-NTA, SEC); not shown: His6, C-terminal, kept) VHH: QVQLQESGGGLVQAGGSLRLSCAASSTLSIDDMGWYRQAPEKHREFVATISRGGSTNYAASVKGRFTISRDNAKNTVFLQMNNLKSEDTAVYYCRATSTWRYYWAQGTQVTVSS
17 | 996 ± 4 | single-chain variable fragment derived from the monoclonal antibody Vibostolimab (scFv, V domains shown, VH of the mAb Vibostolimab (Merck); (G4S)3 linker, written out from the printed formula; VL of the mAb Vibostolimab (Merck); Cloned into pHen6 by Gibson assembly; also called scFv Vibo; Vibo scFv; source: E. coli WK6, periplasmic extract, purified (Ni-NTA, SEC), produced in the same way as the Nbs; not shown: His6, C-terminal, kept) VH: EVQLVQSGAEVKKPGSSVKVSCKASGYTFSSYVMHWVRQAPGQGLEWIGYIDPYNDGAKYAQKFQGRVTLTSDKSTSTAYMELSSLRSEDTAVYYCARGGPYGWYFDVWGQGTTVTVSS VL: DIQMTQSPSSLSASVGDRVTITCRASEHIYSYLSWYQQKPGKVPKLLIYNAKTLAEGVPSRFSGSGSGTDFTLTISSLQPEDVATYYCQHHFGSPLTFGQGTRLEIK
18 | 753 ± 2 | anti-hTIGIT nanobody 16920 (VHH, Cloned into pHen6 after PCR with primers A6E and PMCF; source: E. coli WK6, periplasmic extract, purified (Ni-NTA, SEC); not shown: His6, C-terminal, kept) VHH: QVQLQESGGGFVQAGGSLRLSCAASSISSIYAMDWYRQAPGKQREFVAGITSGGTTNYGSTVKGRFTISRDESKNTVDLQMNSLKPEDSAVYVCRATISWKIYSGQGTQVTVSS
19 | 1974 ± 4 | anti-hTIGIT nanobody 16925 (VHH, Cloned into pHen6 after PCR with primers A6E and PMCF; labelled with 99mTc on the His6 tag for the in vivo work; also called lead hTIGIT Nb; source: E. coli WK6, periplasmic extract, purified (Ni-NTA, SEC); not shown: His6, C-terminal, kept) VHH: QVQLQESGGGLVQAGGSLRLSCAASSISSINAMGWYRQPPGKQRELVARITFGHSTNYADSVKGRFTISRDNAKSTVYLQMNSLKPEDTAVYYCNADLLLNTQAIRAWGQGTQVTVSS
20 | 345 ± 1 | anti-hTIGIT nanobody 17010 (VHH, Cloned into pHen6 after PCR with primers A6E and PMCF; also called Nb 17010; source: E. coli WK6, periplasmic extract, purified (Ni-NTA, SEC); not shown: His6, C-terminal, kept) VHH: QVQLQESGGGSVQTGGSLRLSCAASNGFSINAMGWYRQSPGKQRELVARITSGSSTNYTNYADSVKGRFTISRDNAKNTGYLEMNLLKPEDTAVYYCHADVLLGGLQGLIQRFWGQGTQVTVSS

Molecular target: recombinant mouse TIGIT-Fc carrier-free protein (mouse) (UniProt P86176)
Test: as above
Conditions: not given

Chain of recombinant mouse TIGIT-Fc carrier-free protein (mouse) (P86176 29-148): as the sequence (P86176 29-148) above

Row | Kd [pM] | Molecule
21 | 846000 | anti-mTIGIT Nb 16979 (VHH, nanobody from an immunized llama; Cloned in pHen6 after PCR with primers A6E and PMCF; source: E. coli WK6, periplasmic extract, purified (Ni-NTA, SEC); not shown: His6, C-terminal, kept) VHH: QVQLQESGGGLVQAGESLRLSCAASIIVSDNIMAWYRQSPGKQREIVALISSTGTINYVDSVKGRFTISRDNAKNTLNLQMTKLKPEDTAVYYCSGRTLRVYWGQGTQVTVSS

— article PMC10548220, “Development and evaluation of nanobody tracers for noninvasive nuclear imaging of the immune-checkpoint TIGIT” (Frontiers in Immunology, 2023)
